Test results as given in publication PMC8376927.

Columns and labels:
[1] = target: DAPK2_RNTD, full-length human DAPK2 mutant with the C terminus S367STS370 changed to R367NTD370, autophosphorylated (human) (UniProt Q9UIK4); assay: AUC; sedimentation velocity, DAPK2_RNTD alone at 25-350 μM; 20 °C, 42,000 rev./min; 50 mM HEPES-NaOH pH 7.5, 150 mM NaCl, 1 mM TCEP; dimer to monomers, KD from the ratios of the peak areas
[2] = target: FAM-ctDAPK2-pT369 peptide (FAM-RRRSSpTS) (human); assay: fluorescence polarisation; 14-3-3γ (160 µM and binary dilution series) incubated 1 h with 50 nM FAM-labelled peptide; 20 mM HEPES-NaOH pH 7.4, 150 mM NaCl, 0.1% Tween 20, 0.1% BSA; one-site-binding model; apparent KD
[3] = target: FAM-ctDAPK2-pT369 peptide (FAM-RRRSSpTS) (human); assay: fluorescence polarisation; as a1 but with 100 µM Fusicoccin A (FC-A); apparent KD

| Substance | Kd [1] [nM] | stoichiometry N [1] | Kd [2] [nM] | Kd [3] [nM] |
| --- | --- | --- | --- | --- |
| DAPK2_RNTD, full-length human DAPK2 mutant with the C terminus S367STS370 changed to R367NTD370, autophosphorylated (from UniProt Q9UIK4 1-370) (enzyme) | 100000 | 2 |  |  |
| Human 14-3-3γ WT (from UniProt P61981 1-247) (natural protein) |  |  | 114 | 4.4 |
